According to publication PMC10786891, “Massively parallel profiling of RNA-targeting CRISPR-Cas13d”:

T1: EsCas13d, nuclease-dead (Eubacterium siraeum, UniProt B0MS50, R295A;H300A;R849A;H854A)
T1 sequence: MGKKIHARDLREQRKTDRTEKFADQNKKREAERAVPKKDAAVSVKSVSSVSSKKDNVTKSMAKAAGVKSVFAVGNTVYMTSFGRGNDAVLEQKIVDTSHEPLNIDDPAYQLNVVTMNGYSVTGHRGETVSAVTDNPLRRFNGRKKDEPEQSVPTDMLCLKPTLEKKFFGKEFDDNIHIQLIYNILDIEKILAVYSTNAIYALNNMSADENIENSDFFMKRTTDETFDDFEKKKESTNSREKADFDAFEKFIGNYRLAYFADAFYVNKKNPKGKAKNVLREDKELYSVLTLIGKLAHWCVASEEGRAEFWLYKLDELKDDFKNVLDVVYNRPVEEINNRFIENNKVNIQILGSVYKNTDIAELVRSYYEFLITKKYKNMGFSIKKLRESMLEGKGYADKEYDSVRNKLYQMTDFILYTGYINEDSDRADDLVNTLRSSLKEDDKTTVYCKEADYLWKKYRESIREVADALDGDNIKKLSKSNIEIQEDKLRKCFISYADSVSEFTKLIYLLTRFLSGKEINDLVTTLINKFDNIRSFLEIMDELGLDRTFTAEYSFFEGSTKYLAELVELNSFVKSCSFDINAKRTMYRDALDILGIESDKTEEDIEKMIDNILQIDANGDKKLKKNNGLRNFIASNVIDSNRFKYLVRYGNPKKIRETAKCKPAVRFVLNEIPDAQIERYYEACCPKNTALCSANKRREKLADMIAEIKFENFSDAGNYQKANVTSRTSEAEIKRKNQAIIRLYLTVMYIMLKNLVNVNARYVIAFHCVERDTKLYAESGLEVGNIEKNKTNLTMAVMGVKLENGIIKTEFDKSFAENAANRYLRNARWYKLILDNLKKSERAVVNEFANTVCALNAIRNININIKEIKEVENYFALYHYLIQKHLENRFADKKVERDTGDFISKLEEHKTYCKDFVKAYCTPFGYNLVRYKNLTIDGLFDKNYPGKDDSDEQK

B1: target 1 insG 3' of 9,insA 3' of 3 (mixed)
RNA 1: CACCCGUGCAAAAAUGCAGGGGUCUAAAACUGAGCGGAUAACCUCUCUAUGG
RNA 2: GGGAAUGGAUCCACAUCUACGAAUUCGUACCAUAGAGAGGUUAGUCCGCUACACCGAGAUCGGAAGAGCACACGU
B2: target 1 complement block 2-6 (mixed)
RNA 1: CACCCGUGCAAAAAUGCAGGGGUCUAAAACUGAGCGGAUAACCUCUCUAUGG
RNA 2: GGGAAUGGAUCCACAUCUACGAAUUCGUACCAUAGAGAGGUUAUCGCGAGACCGAGAUCGGAAGAGCACACGU
B3: target 1 insC 3' of 9,insU 3' of 9 (mixed)
RNA 1: CACCCGUGCAAAAAUGCAGGGGUCUAAAACUGAGCGGAUAACCUCUCUAUGG
RNA 2: GGGAAUGGAUCCACAUCUACGAAUUCGUACCAUAGAGAGGUUACUUCCGCUCACCGAGAUCGGAAGAGCACACGU
B4: target 1 insG 3' of 11,insU 3' of 5 (mixed)
RNA 1: CACCCGUGCAAAAAUGCAGGGGUCUAAAACUGAGCGGAUAACCUCUCUAUGG
RNA 2: GGGAAUGGAUCCACAUCUACGAAUUCGUACCAUAGAGAGGUGUAUCCGUCUCACCGAGAUCGGAAGAGCACACGU
B5: target 1 U3A,G12U (mixed)
RNA 1: CACCCGUGCAAAAAUGCAGGGGUCUAAAACUGAGCGGAUAACCUCUCUAUGG
RNA 2: GGGAAUGGAUCCACAUCUACGAAUUCGUACCAUAGAGAGUUUAUCCGCACACCGAGAUCGGAAGAGCACACGU
B6: target 1 G13U,C22U (mixed)
RNA 1: CACCCGUGCAAAAAUGCAGGGGUCUAAAACUGAGCGGAUAACCUCUCUAUGG
RNA 2: GGGAAUGGAUCCACAUCUACGAAUUCGUAUCAUAGAGAUGUUAUCCGCUCACCGAGAUCGGAAGAGCACACGU
B7: target 1 insC 3' of 15,insA 3' of 12 (mixed)
RNA 1: CACCCGUGCAAAAAUGCAGGGGUCUAAAACUGAGCGGAUAACCUCUCUAUGG
RNA 2: GGGAAUGGAUCCACAUCUACGAAUUCGUACCAUAGAGCAGGAUUAUCCGCUCACCGAGAUCGGAAGAGCACACGU
B8: target 1 insC 3' of 15,insA 3' of 13 (mixed)
RNA 1: CACCCGUGCAAAAAUGCAGGGGUCUAAAACUGAGCGGAUAACCUCUCUAUGG
RNA 2: GGGAAUGGAUCCACAUCUACGAAUUCGUACCAUAGAGCAGAGUUAUCCGCUCACCGAGAUCGGAAGAGCACACGU
B9: target 1 insC 3' of 18,insG 3' of 10 (mixed)
RNA 1: CACCCGUGCAAAAAUGCAGGGGUCUAAAACUGAGCGGAUAACCUCUCUAUGG
RNA 2: GGGAAUGGAUCCACAUCUACGAAUUCGUACCAUACGAGAGGUUGAUCCGCUCACCGAGAUCGGAAGAGCACACGU
B10: target 1 insA 3' of 13,insG 3' of 10 (mixed)
RNA 1: CACCCGUGCAAAAAUGCAGGGGUCUAAAACUGAGCGGAUAACCUCUCUAUGG
RNA 2: GGGAAUGGAUCCACAUCUACGAAUUCGUACCAUAGAGAGAGUUGAUCCGCUCACCGAGAUCGGAAGAGCACACGU
B11: target 1 insA 3' of 7,insA 3' of 6 (mixed)
RNA 1: CACCCGUGCAAAAAUGCAGGGGUCUAAAACUGAGCGGAUAACCUCUCUAUGG
RNA 2: GGGAAUGGAUCCACAUCUACGAAUUCGUACCAUAGAGAGGUUAUCACAGCUCACCGAGAUCGGAAGAGCACACGU
B12: target 1 U10A,U19A (mixed)
RNA 1: CACCCGUGCAAAAAUGCAGGGGUCUAAAACUGAGCGGAUAACCUCUCUAUGG
RNA 2: GGGAAUGGAUCCACAUCUACGAAUUCGUACCAAAGAGAGGUAAUCCGCUCACCGAGAUCGGAAGAGCACACGU
B13: target 1 G13A,U19A (mixed)
RNA 1: CACCCGUGCAAAAAUGCAGGGGUCUAAAACUGAGCGGAUAACCUCUCUAUGG
RNA 2: GGGAAUGGAUCCACAUCUACGAAUUCGUACCAAAGAGAAGUUAUCCGCUCACCGAGAUCGGAAGAGCACACGU
B14: target 1 C7U,G15C (mixed)
RNA 1: CACCCGUGCAAAAAUGCAGGGGUCUAAAACUGAGCGGAUAACCUCUCUAUGG
RNA 2: GGGAAUGGAUCCACAUCUACGAAUUCGUACCAUAGACAGGUUAUUCGCUCACCGAGAUCGGAAGAGCACACGU
B15: target 1 G13A,A16G (mixed)
RNA 1: CACCCGUGCAAAAAUGCAGGGGUCUAAAACUGAGCGGAUAACCUCUCUAUGG
RNA 2: GGGAAUGGAUCCACAUCUACGAAUUCGUACCAUAGGGAAGUUAUCCGCUCACCGAGAUCGGAAGAGCACACGU
B16: target 1 G5C,C7G (mixed)
RNA 1: CACCCGUGCAAAAAUGCAGGGGUCUAAAACUGAGCGGAUAACCUCUCUAUGG
RNA 2: GGGAAUGGAUCCACAUCUACGAAUUCGUACCAUAGAGAGGUUAUGCCCUCACCGAGAUCGGAAGAGCACACGU
B17: target 1 C6G,A14C (mixed)
RNA 1: CACCCGUGCAAAAAUGCAGGGGUCUAAAACUGAGCGGAUAACCUCUCUAUGG
RNA 2: GGGAAUGGAUCCACAUCUACGAAUUCGUACCAUAGAGCGGUUAUCGGCUCACCGAGAUCGGAAGAGCACACGU
B18: target 1 insA 3' of 19,insA 3' of 10 (mixed)
RNA 1: CACCCGUGCAAAAAUGCAGGGGUCUAAAACUGAGCGGAUAACCUCUCUAUGG
RNA 2: GGGAAUGGAUCCACAUCUACGAAUUCGUACCAUAAGAGAGGUUAAUCCGCUCACCGAGAUCGGAAGAGCACACGU
B19: target 1 insA 3' of 22,insC 3' of 3 (mixed)
RNA 1: CACCCGUGCAAAAAUGCAGGGGUCUAAAACUGAGCGGAUAACCUCUCUAUGG
RNA 2: GGGAAUGGAUCCACAUCUACGAAUUCGUACACAUAGAGAGGUUAUCCGCUCCACCGAGAUCGGAAGAGCACACGU
B20: target 1 insG 3' of 18,insA 3' of 17 (mixed)
RNA 1: CACCCGUGCAAAAAUGCAGGGGUCUAAAACUGAGCGGAUAACCUCUCUAUGG
RNA 2: GGGAAUGGAUCCACAUCUACGAAUUCGUACCAUAGGAAGAGGUUAUCCGCUCACCGAGAUCGGAAGAGCACACGU
B21: target 1 insU 3' of 7,insA 3' of 4 (mixed)
RNA 1: CACCCGUGCAAAAAUGCAGGGGUCUAAAACUGAGCGGAUAACCUCUCUAUGG
RNA 2: GGGAAUGGAUCCACAUCUACGAAUUCGUACCAUAGAGAGGUUAUCUCGCAUCACCGAGAUCGGAAGAGCACACGU
B22: target 1 insC 3' of 22,insU 3' of 2 (mixed)
RNA 1: CACCCGUGCAAAAAUGCAGGGGUCUAAAACUGAGCGGAUAACCUCUCUAUGG
RNA 2: GGGAAUGGAUCCACAUCUACGAAUUCGUACCCAUAGAGAGGUUAUCCGCUCUACCGAGAUCGGAAGAGCACACGU
B23: target 1 insA 3' of 17,insG 3' of 16 (mixed)
RNA 1: CACCCGUGCAAAAAUGCAGGGGUCUAAAACUGAGCGGAUAACCUCUCUAUGG
RNA 2: GGGAAUGGAUCCACAUCUACGAAUUCGUACCAUAGAAGGAGGUUAUCCGCUCACCGAGAUCGGAAGAGCACACGU
B24: target 1 insU 3' of 5,insU 3' of 4 (mixed)
RNA 1: CACCCGUGCAAAAAUGCAGGGGUCUAAAACUGAGCGGAUAACCUCUCUAUGG
RNA 2: GGGAAUGGAUCCACAUCUACGAAUUCGUACCAUAGAGAGGUUAUCCGUCUUCACCGAGAUCGGAAGAGCACACGU
B25: target 1 A1U,U10A (mixed)
RNA 1: CACCCGUGCAAAAAUGCAGGGGUCUAAAACUGAGCGGAUAACCUCUCUAUGG
RNA 2: GGGAAUGGAUCCACAUCUACGAAUUCGUACCAUAGAGAGGUAAUCCGCUCUCCGAGAUCGGAAGAGCACACGU
B26: target 1 insU 3' of 22,insU 3' of 15 (mixed)
RNA 1: CACCCGUGCAAAAAUGCAGGGGUCUAAAACUGAGCGGAUAACCUCUCUAUGG
RNA 2: GGGAAUGGAUCCACAUCUACGAAUUCGUACUCAUAGAGUAGGUUAUCCGCUCACCGAGAUCGGAAGAGCACACGU
B27: target 1 insA 3' of 4,insC 3' of 3 (mixed)
RNA 1: CACCCGUGCAAAAAUGCAGGGGUCUAAAACUGAGCGGAUAACCUCUCUAUGG
RNA 2: GGGAAUGGAUCCACAUCUACGAAUUCGUACCAUAGAGAGGUUAUCCGCAUCCACCGAGAUCGGAAGAGCACACGU
B28: target 1 G17U,C21U (mixed)
RNA 1: CACCCGUGCAAAAAUGCAGGGGUCUAAAACUGAGCGGAUAACCUCUCUAUGG
RNA 2: GGGAAUGGAUCCACAUCUACGAAUUCGUACUAUAUAGAGGUUAUCCGCUCACCGAGAUCGGAAGAGCACACGU

biological target: T1, EsCas13d, nuclease-dead; experiment: crRNA (strand 1, pre-loaded); Mg2+; 40 mM Tris-HCl pH 7.5, 150 mM NaCl, 6 mM MgCl2, 1 mM DTT, 0.1% Tween-20, 0.2 mg/ml BSA; 25 C; 10 min per concentration, then washed; settings: tags: His6-TwinStrep-SUMO cleaved; N-terminal SNAP kept (SNAP-Surface 488); label: 3' end held by stalled T7 RNA polymerase

Row | Binder | Kd [nM]
1 | B1 | 10.3 ± 0.8
2 | B2 | 12.3 ± 0.5
3 | B3 | 7.9 ± 0.9
4 | B4 | 39 ± 5
5 | B5 | 7.58 ± 0.34
6 | B6 | 82 ± 27
7 | B7 | 77 ± 24
8 | B8 | 27.6 ± 2.8
9 | B9 | ~70
10 | B10 | 7.2 ± 0.5
11 | B11 | 7.46 ± 0.33
12 | B12 | 48 ± 7
13 | B13 | 38 ± 6
14 | B14 | 48 ± 7
15 | B15 | 30 ± 4
16 | B16 | 15.8 ± 0.9
17 | B17 | 13.4 ± 0.4
18 | B18 | 30.7 ± 1.4
19 | B19 | 16.1 ± 2.5
20 | B20 | 53 ± 8
21 | B21 | 9.7 ± 0.7
22 | B22 | 23 ± 4
23 | B23 | 18.7 ± 1.5
24 | B24 | 17.8 ± 2.9
25 | B25 | 8.8 ± 0.4
26 | B26 | 34 ± 6
27 | B27 | 19.9 ± 2.5
28 | B28 | 12 ± 0.9
